Results taken from US20150218261A1 (AbbVie / Abbott, published 2015).

T1: platelet factor 4 (PF-4) in Cynomolgus monkey plasma (Cynomolgus monkey (Macaca fascicularis), UniProt A0A7N9D5L6 32-101)
T1 construct: Endogenous protein of the plasma; detected with rabbit polyclonal anti-HPF4 (Abcam ab9561); also called CXCL4
T1 sequence: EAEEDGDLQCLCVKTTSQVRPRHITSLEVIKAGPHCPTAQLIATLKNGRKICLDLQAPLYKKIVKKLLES

T2: Aβ(20-42) globulomer (human)
T2 construct: Range counted on the Aβ peptide; also called amyloid-beta (20-42) globulomer
T2 peptide: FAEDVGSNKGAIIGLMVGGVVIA


Key:
[1] = biological target: T3, human platelet factor 4 (PF-4) in HPF4-spiked human plasma (human); assay: aligned sandwich ELISA (R4), HPF4-spiked human plasma; AUC of reference anti-HPF4 antibody (ab49735) against AUC of this antibody
T3 construct: Human EDTA plasma pool (4 donors) spiked with 10 ng/ml human PF4 (Molecular Innovation cat. no. HPF4); also called human PF4; CXCL4

[2] = biological target: T3, human platelet factor 4 (PF-4) in …; assay: sandwich ELISA (R2), HPF4-spiked human plasma; AUC of reference anti-HPF4 antibody (ab49735) against AUC of this antibody
[3] = biological target: T3, human platelet factor 4 (PF-4) in …; assay: sandwich ELISA (E2), HPF4-spiked human plasma; AUC of reference anti-HPF4 antibody (ab49735) against AUC of this antibody
[4] = biological target: T3, human platelet factor 4 (PF-4) in …; assay: aligned sandwich ELISA (E4), HPF4-spiked human plasma; AUC of reference anti-HPF4 antibody (ab49735) against AUC of this antibody
[5] = biological target: T1, platelet factor 4 (PF-4) in Cynomolgus …; assay: aligned sandwich ELISA (E3), cynomolgus plasma; AUC of reference anti-HPF4 antibody (ab49735) against AUC of this antibody
Protocol: (§1) Then 10 μl 10 mg/ml trypsin inhibitor in H₂O were added. After incubation for 10 min at room temperature the sample was filtrated through a 0.22 μm filter (Millipore cat. no. SLGS0250S).
(§2) Procedure used: [0437] 1. 100 μl of the respective aligning antibody solution (anti-human IgG for experiment E3; anti-murine IgG for reference experiment R3) per well were applied and incubated overnight at 4° C. [0438] 2. The antibody solution was discarded and the wells were washed three times with 250 μl PB ST-buffer. [0439] 3. 265 μl blocking solution per well were added and incubated 2 h at room temperature. [0440] 4. The blocking solution was discarded and the wells were washed three times with 250 μl PBST buffer. [0441] 5. After preparation of the dilution series of each binding antibody, 100 μl per well of these antibody dilutions were applied to the plate. The plate was incubated 2 h at room temperature. [0442] 6. […] Plate colour was monitored during development (5-15 min at ambient temperature) and the reaction was terminated by adding 50 μl/well of stop solution when an appropriate colour had developed. […] The absorbance was read at 450 nm.
(§3) Data analysis was performed as described for sandwich-ELISA with cynomolgus plasma in Example 3.1, except that not plasma dilution factors but the amounts of antibody (expressed in ng/ml) were used as X-values and thus concentration effect curves were calculated.

[6] = biological target: T1, platelet factor 4 (PF-4) in Cynomolgus …; assay: sandwich ELISA (E1), cynomolgus plasma; AUC of reference anti-HPF4 antibody (ab49735) against AUC of this antibody
[7] = biological target: T1, platelet factor 4 (PF-4) in Cynomolgus …; assay: sandwich-ELISA: antibody coated on the plate, dilution series of cynomolgus plasma, bound PF-4 detected (OD450nm)
Aβ(20-42) globulomer [8] = biological target: T2, Aβ(20-42) globulomer; assay: SPR (BIAcore); antibody captured on goat anti-human IgG Fc, soluble globulomer injected; lot #1759119, experiment 1
Protocol: (§4) Interaction of the purified humanized antibodies 4D10hum#1 and 4D10hum#2 to Aβ(20-42) globulomer was evaluated by surface plasmon resonance (SPR) analysis using a BIAcore device. Goat anti-human IgG Fc (10,000 RU) was directly immobilized on a CMS sensor chip by an amine coupling procedure according to the manufacturer's instructions (BIAcore). The respective 4D10hum antibody was captured on the goat anti-human IgG Fc coated surface of the chip by injecting 5.0 μl of a 1 μg/ml 4D10hum antibody solution at a flow rate of 10-15 μl/min. Interaction of soluble Aβ(20-42) globulomer with the 4D10hum antibody on the sensor chip was examined by injecting globulomer solutions (concentration range: 20-0.3125 nM) at a flow rate of 50 μl/min. The association rate was monitored for 5.0 min and the dissociation rate was monitored for 10 min. From the resulting sensorgrams the association rate constant (kₒₙ), dissociation rate constant (koff) and equilibrium dissociation constant (KD) were determined using to the manufacturer's software and instructions. The kinetic and equilibrium constants determined for three different preparations of 4D10hum#1 and two different preparations of 4D10hum#2 are summarized in table 7. […] The heavy chains of antibodies #4 and #5 are as in 4D10hum#1 or #2, and the light chains are chimeras of m4D10 VL (SEQ ID NO:24) and the human Ig kappa constant region (SEQ ID NO:27). The light chains of antibody #3 are as in 4D10hum#1 and #2, and the heavy chains are chimeras of m4D10 VH (SEQ ID NO23) and the human Ig gamma-1 constant region (SEQ ID NO:25).

Aβ(20-42) globulomer [9] = biological target: T2, Aβ(20-42) globulomer; assay: SPR (BIAcore); antibody captured on goat anti-human IgG Fc, soluble globulomer injected; lot #1759119, experiment 2
Protocol: as §4

[10] = biological target: T1, platelet factor 4 (PF-4) in Cynomolgus …; assay: aligned sandwich ELISA (E3), cynomolgus plasma; AUC was 0, ratio could not be calculated
Protocol: as §1, §2, §3

Aβ(20-42) globulomer [11] = biological target: T2, Aβ(20-42) globulomer; assay: SPR (BIAcore); antibody captured on goat anti-human IgG Fc, soluble globulomer injected; lot #1773659, average
Protocol: as §4

Aβ(20-42) globulomer [12] = biological target: T2, Aβ(20-42) globulomer; assay: SPR (BIAcore); antibody captured on goat anti-human IgG Fc, soluble globulomer injected; lot #1773659, experiment 2
Protocol: as §4

Aβ(20-42) globulomer [13] = biological target: T2, Aβ(20-42) globulomer; assay: SPR (BIAcore); antibody captured on goat anti-human IgG Fc, soluble globulomer injected; lot #1773659, experiment 1
Protocol: as §4

Aβ(20-42) globulomer [14] = biological target: T2, Aβ(20-42) globulomer; assay: SPR (BIAcore); antibody captured on goat anti-human IgG Fc, soluble globulomer injected; lot #1759119, average
Protocol: as §4

Aβ(20-42) globulomer [15] = biological target: T2, Aβ(20-42) globulomer; assay: SPR (BIAcore); antibody captured on goat anti-human IgG Fc, soluble globulomer injected; experiment 2
Protocol: as §4

Aβ(20-42) globulomer [16] = biological target: T2, Aβ(20-42) globulomer; assay: SPR (BIAcore); antibody captured on goat anti-human IgG Fc, soluble globulomer injected; average
Protocol: as §4

Aβ(20-42) globulomer [17] = biological target: T2, Aβ(20-42) globulomer; assay: SPR (BIAcore); antibody captured on goat anti-human IgG Fc, soluble globulomer injected; experiment 1
Protocol: as §4

Binder	Ratio HPF4/aAβ antibody [3]	Ratio HPF4/aAβ antibody [4]	Ratio HPF4/aAβ antibody [6]	binding result [7]	Kd (Aβ(20-42) globulomer [15]) [pM]	koff (Aβ(20-42) globulomer [15]) [s⁻¹]	kon (Aβ(20-42) globulomer [15]) [M⁻¹ s⁻¹]	Kd (Aβ(20-42) globulomer [16]) [pM]	koff (Aβ(20-42) globulomer [16]) [s⁻¹]	kon (Aβ(20-42) globulomer [16]) [M⁻¹ s⁻¹]	Kd (Aβ(20-42) globulomer [17]) [pM]	koff (Aβ(20-42) globulomer [17]) [s⁻¹]	kon (Aβ(20-42) globulomer [17]) [M⁻¹ s⁻¹]	other results
anti-Aβ monoclonal antibody clone m4D10 (antibody, V domains shown, Murine monoclonal antibody; also called mAb m4D10; murine 4D10) VH: QVQLKQSGPSLIQPSQSLSITCTVSGFSLTSYGVHWVRQSPGKGLEWLGVIWRGGRIDYNAAFMSRLSITKDNSKSQVFFKMNSLQADDTAIYYCARNSDVWGTGTTVTVSS VL: not shown														Ratio HPF4/aAβ antibody [1]: 27; Ratio HPF4/aAβ antibody [2]: 21
humanized monoclonal anti-Aβ antibody 4D10hum#1 (antibody, human IgG1, kappa, V domains shown, also called mAb 4D10hum#1; mAb 4D10 hum#1) VH: EVQLVESGGGLVQPGGSLRLSCAVSGFTLSSYGVHWVRQAPGKGLEWLGVIWRGGRIDYNAAFMSRLTISKDNSKSTVYLQMNSLRAEDTAVYYCARNSDVWGQGTTVTVSS VL: DVVMTQTPLSLPVTPGQPASISCKSSQSLLDIDGKTYLNWLLQKPGQSPQRLIYLVSKLDSGVPDRFSGSGSGTDFTLKISRVEAEDVGVYYCWQGTHFPYTFGQGTKLEIKR	30	23	64	no binding (tested: plasma dilution 1:3.16)										Ratio HPF4/aAβ antibody [5]: 158
humanized monoclonal anti-Aβ antibody 4D10hum#2 (antibody, human IgG1, kappa, V domains shown, also called mAb 4D10hum#2; mAb 4D10 hum#2) VH: EVQLQESGPGLVKPSETLSLTCTVSGFSLSSYGVHWVRQPPGKGLEWLGVIWRGGRIDYNAAFMSRLTISKDTSKSQVSLKLSSVTAADTAVYYCARNSDVWGQGTTVTVSS VL: DVVMTQTPLSLPVTPGQPASISCKSSQSLLDIDGKTYLNWLLQKPGQSPQRLIYLVSKLDSGVPDRFSGSGSGTDFTLKISRVEAEDVGVYYCWQGTHFPYTFGQGTKLEIKR	17	75	36	no binding (tested: plasma dilution 1:3.16)										Kd (Aβ(20-42) globulomer [8]): 454 pM; koff (Aβ(20-42) globulomer [8]): 0.00027 s⁻¹; kon (Aβ(20-42) globulomer [8]): 593000 M⁻¹ s⁻¹; Kd (Aβ(20-42) globulomer [9]): 609 pM; koff (Aβ(20-42) globulomer [9]): 0.000332 s⁻¹; kon (Aβ(20-42) globulomer [9]): 546000 M⁻¹ s⁻¹; Ratio HPF4/aAβ antibody [10]: > 158; Kd (Aβ(20-42) globulomer [11]): 482 pM; koff (Aβ(20-42) globulomer [11]): 0.000283 s⁻¹; kon (Aβ(20-42) globulomer [11]): 597000 M⁻¹ s⁻¹; Kd (Aβ(20-42) globulomer [12]): 435 pM; koff (Aβ(20-42) globulomer [12]): 0.000298 s⁻¹; kon (Aβ(20-42) globulomer [12]): 686000 M⁻¹ s⁻¹; Kd (Aβ(20-42) globulomer [13]): 529 pM; koff (Aβ(20-42) globulomer [13]): 0.000268 s⁻¹; kon (Aβ(20-42) globulomer [13]): 507000 M⁻¹ s⁻¹; Kd (Aβ(20-42) globulomer [14]): 532 pM; koff (Aβ(20-42) globulomer [14]): 0.000301 s⁻¹; kon (Aβ(20-42) globulomer [14]): 570000 M⁻¹ s⁻¹
4D10#3 (chimeric heavy chain; light chain as 4D10hum#1 and #2) (antibody, human IgG1, kappa, V domains shown, Heavy chain is a chimera of m4D10 VH and the human Ig gamma-1 constant region; light chain is the humanized one; also called antibody #3) VH: QVQLKQSGPSLIQPSQSLSITCTVSGFSLTSYGVHWVRQSPGKGLEWLGVIWRGGRIDYNAAFMSRLSITKDNSKSQVFFKMNSLQADDTAIYYCARNSDVWGTGTTVTVSS VL: DVVMTQTPLSLPVTPGQPASISCKSSQSLLDIDGKTYLNWLLQKPGQSPQRLIYLVSKLDSGVPDRFSGSGSGTDFTLKISRVEAEDVGVYYCWQGTHFPYTFGQGTKLEIKR					669	0.000349	522000	597	0.000333	563000	525	0.000317	603000	
4D10#5 (heavy chain as 4D10hum#2; chimeric light chain) (antibody, human IgG1, kappa, V domains shown, Light chain is a chimera of m4D10 VL and the human Ig kappa constant region; also called antibody #5) VH: EVQLQESGPGLVKPSETLSLTCTVSGFSLSSYGVHWVRQPPGKGLEWLGVIWRGGRIDYNAAFMSRLTISKDTSKSQVSLKLSSVTAADTAVYYCARNSDVWGQGTTVTVSS VL: not shown					619	0.000292	472000	575	0.000277	483000	530	0.000262	494000	
4D10#4 (heavy chain as 4D10hum#1; chimeric light chain) (antibody, human IgG1, kappa, V domains shown, Light chain is a chimera of m4D10 VL and the human Ig kappa constant region; also called antibody #4) VH: EVQLVESGGGLVQPGGSLRLSCAVSGFTLSSYGVHWVRQAPGKGLEWLGVIWRGGRIDYNAAFMSRLTISKDNSKSTVYLQMNSLRAEDTAVYYCARNSDVWGQGTTVTVSS VL: not shown					657	0.000332	506000	646	0.000313	484000	635	0.000294	462000	
